This note sets out measurements from publication PMC9119168 (Antiviral Research, 2022).

Where no end group is shown, it is not given here. Side-chain parts run from the residue outwards. The star is where a group is joined. Biotin = O=C1N[C@H]2[C@H](CS[C@H]2CCCCC(=O)*)N1; Aoa = not defined here

Assay [1] addresses T1, SARS-CoV-2 Mac1 (conserved macrodomain of non-structural protein 3), His-tagged (SARS-CoV-2, UniProt P0DTD1). The assay can be described thus: fluorescence polarisation.
The target in assay [2] is T1, SARS-CoV-2 Mac1 (conserved macrodomain …). The assay can be described thus: AlphaScreen or HTRF. In general terms: Alpha assays give light when donor and acceptor beads are brought close together.

B1: fluorescein labeled ADP-ribosylated peptide [5 Flu-ARTKQTARK (Aoa-RADP)S] (peptide)
peptide: ARTKQTARKS
With B1, the binding result in assay [1] is “binds”.

B2: 10 amino acid biotinylated and ADP-ribosylated peptide [ARTK(Bio)QTARK (Aoa-RADP)S] (peptide)
peptide: ARTK(Biotin)QTARK([Aoa-ADP‑ribose])S
modifications: reading uncertain
Turning to B2, the binding result in assay [2] is on record as “binds”.
